Results: paper PMC4436829
Like-named read-outs stand apart in the source and are kept apart here.

Assays:
[1] = target: S8,15,44,55D NDC80 "Bonsai"-GFP complex; assay: FRAP
[2] = target: Taxol-stabilized microtubules (polymerized cow brain tubulin) (cow) (UniProt Q2HJ86); assay: FRAP
[3] = target: S8,15,44,55D NDC80 "Bonsai"-GFP complex; assay: TIRF-based MT-binding assay
[4] = target: Taxol-stabilized microtubules (polymerized cow brain tubulin) (cow) (UniProt Q2HJ86); assay: TIRF-based MT-binding assay
[5] = target: noD NDC80 "Bonsai"-GFP complex (wild-type Hec1 tail); assay: FRAP
[6] = target: Taxol-stabilized microtubules (polymerized cow brain tubulin) (cow) (UniProt Q2HJ86); assay: single-molecule TIRF microscopy
[7] = target: noD NDC80 "Bonsai"-GFP complex (wild-type Hec1 tail); assay: TIRF-based MT-binding assay
[8] = target: S15D NDC80 "Bonsai"-GFP complex; assay: TIRF-based MT-binding assay
[9] = target: S15D NDC80 "Bonsai"-GFP complex; assay: TIRF-based MT-binding assay; remark: listed apart in the source

UniProt Q2HJ86, sequence (Q2HJ86 8-447, chain 1 of 2): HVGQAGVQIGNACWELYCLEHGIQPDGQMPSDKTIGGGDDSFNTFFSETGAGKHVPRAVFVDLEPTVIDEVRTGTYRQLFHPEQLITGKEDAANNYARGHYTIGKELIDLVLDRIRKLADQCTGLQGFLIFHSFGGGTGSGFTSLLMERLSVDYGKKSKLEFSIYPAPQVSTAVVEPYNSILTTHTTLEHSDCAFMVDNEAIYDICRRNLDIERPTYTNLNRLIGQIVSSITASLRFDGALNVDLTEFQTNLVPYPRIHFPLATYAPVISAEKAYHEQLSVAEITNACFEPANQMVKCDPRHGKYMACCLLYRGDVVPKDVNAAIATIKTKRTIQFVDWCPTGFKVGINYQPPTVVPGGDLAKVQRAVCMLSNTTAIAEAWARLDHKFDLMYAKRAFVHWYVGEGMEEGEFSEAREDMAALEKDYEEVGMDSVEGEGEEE
UniProt Q2HJ86, sequence (Q6B856 1-439, chain 2 of 2, further chain): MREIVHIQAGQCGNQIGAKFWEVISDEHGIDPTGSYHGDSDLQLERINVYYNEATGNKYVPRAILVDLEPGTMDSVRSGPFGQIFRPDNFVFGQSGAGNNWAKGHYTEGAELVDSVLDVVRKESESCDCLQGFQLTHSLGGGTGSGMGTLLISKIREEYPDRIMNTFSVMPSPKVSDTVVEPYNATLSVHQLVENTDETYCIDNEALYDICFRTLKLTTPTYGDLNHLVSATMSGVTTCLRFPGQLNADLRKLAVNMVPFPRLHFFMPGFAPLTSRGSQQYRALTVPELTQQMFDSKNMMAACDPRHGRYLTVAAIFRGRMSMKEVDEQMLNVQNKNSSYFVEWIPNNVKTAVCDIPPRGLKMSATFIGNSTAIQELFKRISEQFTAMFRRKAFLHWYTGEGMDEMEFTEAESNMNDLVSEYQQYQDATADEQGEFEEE

Row | Substance | cooperativity parameter (ω) [1] | FRAP recovery time [2] [s] | cooperativity parameter (ω) [3] | Kd [4] [nM] | stoichiometry N (molecules per tubulin dimer) [4] | cooperativity parameter (ω) [5] | Kd [6] [nM] | residency time (τ = 1/koff) [6] [ms] | cooperativity parameter (ω) [7] | cooperativity parameter (ω) [8] | cooperativity parameter (ω) [9]
1 | S8,15,44,55D NDC80 "Bonsai"-GFP complex | 2.4 | 0.084 | 2.6 | 1920 | 1.9 |  |  |  |  |  | 
2 | noD NDC80 "Bonsai"-GFP complex (wild-type Hec1 tail) |  | 0.29 |  | 530 | 1.9 | 2 | 640 | 417 | 3.33 |  | 
3 | S15D NDC80 "Bonsai"-GFP complex |  |  |  | 710 | 1.9 |  |  |  |  | 2 | 3
